Columns and labels:
thrombin = thrombin (UniProt P00734;P00734 315-363;364-622); assay: bead-based fluorescence; PDGF-BB and ApoE: PBS pH 7.4, 1 mM MgCl2, 0.025% Tween 20; thrombin: 50 mM Tris pH 7.5, 100 mM NaCl, 1 mM MgCl2, 5 mM KCl, 1 mM CaCl2, 0.025% Tween 20; 1 h, roo
[1] = target: PDGF-BB (platelet-derived growth factor BB) (UniProt P01127 82-190); assay: bead-based fluorescence; PDGF-BB and ApoE: PBS pH 7.4, 1 mM MgCl2, 0.025% Tween 20; thrombin: 50 mM Tris pH 7.5, 100 mM NaCl, 1 mM MgCl2, 5 mM KCl, 1 mM CaCl2, 0.025% Tween 20; 1 h, room temperature; settings: protein: commercial; chain copies: 2; label: 5'-FAM
Bovine serum albumin [2] = target: T1, Bovine serum albumin (Bos taurus (Bovine), UniProt P02769 25-607); assay: pulldown; PBS pH 7.4, 1 mM MgCl2, 0.025% Tween 20, RT; settings: label: 5'-Alexa Fluor 488
Bovine serum albumin [3] = target: T1, Bovine serum albumin; assay: pulldown; 50 mM Tris pH 7.5, 100 mM NaCl, 1 mM MgCl2, 5 mM KCl, 1 mM CaCl2, 0.025% Tween 20, RT; settings: label: 5'-Alexa Fluor 488

T1 sequence (P02769 25-607): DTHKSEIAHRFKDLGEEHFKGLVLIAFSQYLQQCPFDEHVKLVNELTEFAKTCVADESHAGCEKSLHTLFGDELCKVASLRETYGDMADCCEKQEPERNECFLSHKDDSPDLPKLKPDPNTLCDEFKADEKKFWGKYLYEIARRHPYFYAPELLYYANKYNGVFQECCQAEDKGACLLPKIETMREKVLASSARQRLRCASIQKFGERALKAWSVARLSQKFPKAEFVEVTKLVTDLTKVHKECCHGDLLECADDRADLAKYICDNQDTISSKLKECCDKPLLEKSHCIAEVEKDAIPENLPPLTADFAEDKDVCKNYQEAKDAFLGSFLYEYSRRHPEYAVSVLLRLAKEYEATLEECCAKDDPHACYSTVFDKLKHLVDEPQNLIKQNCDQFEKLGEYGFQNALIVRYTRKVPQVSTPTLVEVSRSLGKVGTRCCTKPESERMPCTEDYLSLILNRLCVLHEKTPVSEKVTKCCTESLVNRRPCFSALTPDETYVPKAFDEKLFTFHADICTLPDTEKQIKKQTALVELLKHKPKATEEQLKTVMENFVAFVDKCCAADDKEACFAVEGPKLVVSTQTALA
Sequence of PDGF-BB (platelet-derived growth factor BB) (P01127 82-190): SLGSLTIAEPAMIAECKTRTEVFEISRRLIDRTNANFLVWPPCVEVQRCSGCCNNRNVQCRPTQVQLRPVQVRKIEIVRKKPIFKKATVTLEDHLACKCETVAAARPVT

Row | Binder | Kd (thrombin) [nM] | binding result (Bovine serum albumin [2]) | also measured
1 | GGTTGGTGTGGTTGG (ssDNA) [Bock thrombin aptamer (consensus 15-mer)] | 1.2 |  | 
2 | AGTCCGTGGTAGGGCAGGTTGGGGTGACT (ssDNA) [Tasset thrombin aptamer 60-18[29]] | 11.9 |  | 
3 | CACAGGCTACGGCACGTAGAGCATCACCATGATCCTGTG (ssDNA) [Green PDGF aptamer 36t] |  |  | Kd [1]: 0.12 nM
4 | ApoE-06 (Ahmad 2011) (ssDNA) DNA: AGCAGCACAGAGGTCAGATGACTAGCTACGGGGTGGGTGGGCGGTGTCAGTTTGTTTATTGGTGCTATACATCCTCTATACCTATGCGTGCTACCGTGAA |  | no binding | 
5 | Thr-08 (ssDNA) DNA: AGCAGCACAGAGGTCAGATGCAGCGCTAGGGCTTTTAGCGTAATGGGTAGGGTGGTGCGGTGCAGATATCGGAATTGGTGCCTATGCGTGCTACCGTGAA |  |  | binding result (Bovine serum albumin [3]): no binding
6 | PDGF-09 (ssDNA) DNA: AGCAGCACAGAGGTCAGATGGAATCATGATCCCCCATGACCTGGGGGCGTTACTGGCGAGCATCATGAGAGATCGTGCGACCTATGCGTGCTACCGTGAA |  | no binding | 
